The chains are these.
B1: GpH7-B3 variant I332_19Q/GpL16-k0 (antibody, human IgG1, kappa)
heavy: not shown
light: DIVMTQSPLSLPVTPGEPASISCQASESLVHSNRNTYLHWYLQKPGQSPQLLIYKVSNRFSGVPDRFSGSGSGTDFTLKISRVEAEDVGVYYCSQNTHVPPTFGQGTKVEIERTVAAPSVFIFPPSDEQLKSGTASVVCLLNNFYPREAKVQWKVDNALQSGNSQESVTEQDSKDSTYSLSSTLTLSKADYEKHKVYACEVTHQGLSSPVTKSFNRGEC
notes: homodimerized IgG1, mutation in both H chains; also called Ho Ab
B2: GpH7-B3 variant I336_13S/GpL16-k0 (antibody, human IgG1, kappa)
heavy: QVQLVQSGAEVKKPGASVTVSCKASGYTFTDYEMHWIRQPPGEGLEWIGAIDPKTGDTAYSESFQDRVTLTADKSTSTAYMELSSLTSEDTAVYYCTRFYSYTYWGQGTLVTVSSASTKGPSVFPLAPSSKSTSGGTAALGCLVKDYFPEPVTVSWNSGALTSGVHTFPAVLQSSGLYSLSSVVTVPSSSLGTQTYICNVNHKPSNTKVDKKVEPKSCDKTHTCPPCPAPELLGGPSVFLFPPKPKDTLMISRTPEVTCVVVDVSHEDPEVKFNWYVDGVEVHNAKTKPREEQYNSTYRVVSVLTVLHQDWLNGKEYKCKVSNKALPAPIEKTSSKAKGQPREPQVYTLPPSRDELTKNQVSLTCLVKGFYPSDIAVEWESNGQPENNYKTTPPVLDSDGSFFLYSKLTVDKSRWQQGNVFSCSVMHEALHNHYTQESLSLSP
light: DIVMTQSPLSLPVTPGEPASISCQASESLVHSNRNTYLHWYLQKPGQSPQLLIYKVSNRFSGVPDRFSGSGSGTDFTLKISRVEAEDVGVYYCSQNTHVPPTFGQGTKVEIERTVAAPSVFIFPPSDEQLKSGTASVVCLLNNFYPREAKVQWKVDNALQSGNSQESVTEQDSKDSTYSLSSTLTLSKADYEKHKVYACEVTHQGLSSPVTKSFNRGEC
notes: as for B1
B3: GpH7-B3 variant I336_18N/GpL16-k0 (antibody, human IgG1, kappa)
heavy: not shown
light: DIVMTQSPLSLPVTPGEPASISCQASESLVHSNRNTYLHWYLQKPGQSPQLLIYKVSNRFSGVPDRFSGSGSGTDFTLKISRVEAEDVGVYYCSQNTHVPPTFGQGTKVEIERTVAAPSVFIFPPSDEQLKSGTASVVCLLNNFYPREAKVQWKVDNALQSGNSQESVTEQDSKDSTYSLSSTLTLSKADYEKHKVYACEVTHQGLSSPVTKSFNRGEC
notes: as for B1
B4: GpH7-B3 variant I336_09D/GpL16-k0 (antibody, human IgG1, kappa)
heavy: not shown
light: DIVMTQSPLSLPVTPGEPASISCQASESLVHSNRNTYLHWYLQKPGQSPQLLIYKVSNRFSGVPDRFSGSGSGTDFTLKISRVEAEDVGVYYCSQNTHVPPTFGQGTKVEIERTVAAPSVFIFPPSDEQLKSGTASVVCLLNNFYPREAKVQWKVDNALQSGNSQESVTEQDSKDSTYSLSSTLTLSKADYEKHKVYACEVTHQGLSSPVTKSFNRGEC
notes: as for B1
B5: GpH7-B3 variant K326_15Y/GpL16-k0 (antibody, human IgG1, kappa)
heavy: not shown
light: DIVMTQSPLSLPVTPGEPASISCQASESLVHSNRNTYLHWYLQKPGQSPQLLIYKVSNRFSGVPDRFSGSGSGTDFTLKISRVEAEDVGVYYCSQNTHVPPTFGQGTKVEIERTVAAPSVFIFPPSDEQLKSGTASVVCLLNNFYPREAKVQWKVDNALQSGNSQESVTEQDSKDSTYSLSSTLTLSKADYEKHKVYACEVTHQGLSSPVTKSFNRGEC
notes: as for B1
B6: GpH7-B3 variant K326_06M/GpL16-k0 (antibody, human IgG1, kappa)
heavy: not shown
light: DIVMTQSPLSLPVTPGEPASISCQASESLVHSNRNTYLHWYLQKPGQSPQLLIYKVSNRFSGVPDRFSGSGSGTDFTLKISRVEAEDVGVYYCSQNTHVPPTFGQGTKVEIERTVAAPSVFIFPPSDEQLKSGTASVVCLLNNFYPREAKVQWKVDNALQSGNSQESVTEQDSKDSTYSLSSTLTLSKADYEKHKVYACEVTHQGLSSPVTKSFNRGEC
notes: as for B1
B7: GpH7-B3 variant I336_03V/GpL16-k0 (antibody, human IgG1, kappa)
heavy: not shown
light: DIVMTQSPLSLPVTPGEPASISCQASESLVHSNRNTYLHWYLQKPGQSPQLLIYKVSNRFSGVPDRFSGSGSGTDFTLKISRVEAEDVGVYYCSQNTHVPPTFGQGTKVEIERTVAAPSVFIFPPSDEQLKSGTASVVCLLNNFYPREAKVQWKVDNALQSGNSQESVTEQDSKDSTYSLSSTLTLSKADYEKHKVYACEVTHQGLSSPVTKSFNRGEC
notes: as for B1
B8: GpH7-B3 variant K334_03V/GpL16-k0 (antibody, human IgG1, kappa)
heavy: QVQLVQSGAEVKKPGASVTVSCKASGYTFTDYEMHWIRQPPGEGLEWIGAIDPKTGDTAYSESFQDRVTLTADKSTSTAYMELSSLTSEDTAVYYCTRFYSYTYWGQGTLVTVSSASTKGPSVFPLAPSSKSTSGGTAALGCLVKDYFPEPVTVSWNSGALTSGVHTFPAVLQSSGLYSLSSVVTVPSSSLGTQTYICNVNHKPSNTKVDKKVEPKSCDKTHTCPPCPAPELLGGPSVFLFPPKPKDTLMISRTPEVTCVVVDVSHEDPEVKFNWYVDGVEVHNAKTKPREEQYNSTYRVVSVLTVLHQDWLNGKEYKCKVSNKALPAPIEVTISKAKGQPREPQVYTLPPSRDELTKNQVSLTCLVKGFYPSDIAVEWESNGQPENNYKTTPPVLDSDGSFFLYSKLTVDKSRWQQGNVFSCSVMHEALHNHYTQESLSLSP
light: DIVMTQSPLSLPVTPGEPASISCQASESLVHSNRNTYLHWYLQKPGQSPQLLIYKVSNRFSGVPDRFSGSGSGTDFTLKISRVEAEDVGVYYCSQNTHVPPTFGQGTKVEIERTVAAPSVFIFPPSDEQLKSGTASVVCLLNNFYPREAKVQWKVDNALQSGNSQESVTEQDSKDSTYSLSSTLTLSKADYEKHKVYACEVTHQGLSSPVTKSFNRGEC
notes: as for B1
B9: GpH7-B3 variant K326_14T/GpL16-k0 (antibody, human IgG1, kappa)
heavy: not shown
light: DIVMTQSPLSLPVTPGEPASISCQASESLVHSNRNTYLHWYLQKPGQSPQLLIYKVSNRFSGVPDRFSGSGSGTDFTLKISRVEAEDVGVYYCSQNTHVPPTFGQGTKVEIERTVAAPSVFIFPPSDEQLKSGTASVVCLLNNFYPREAKVQWKVDNALQSGNSQESVTEQDSKDSTYSLSSTLTLSKADYEKHKVYACEVTHQGLSSPVTKSFNRGEC
notes: as for B1
B10: GpH7-B3 variant I336_06M/GpL16-k0 (antibody, human IgG1, kappa)
heavy: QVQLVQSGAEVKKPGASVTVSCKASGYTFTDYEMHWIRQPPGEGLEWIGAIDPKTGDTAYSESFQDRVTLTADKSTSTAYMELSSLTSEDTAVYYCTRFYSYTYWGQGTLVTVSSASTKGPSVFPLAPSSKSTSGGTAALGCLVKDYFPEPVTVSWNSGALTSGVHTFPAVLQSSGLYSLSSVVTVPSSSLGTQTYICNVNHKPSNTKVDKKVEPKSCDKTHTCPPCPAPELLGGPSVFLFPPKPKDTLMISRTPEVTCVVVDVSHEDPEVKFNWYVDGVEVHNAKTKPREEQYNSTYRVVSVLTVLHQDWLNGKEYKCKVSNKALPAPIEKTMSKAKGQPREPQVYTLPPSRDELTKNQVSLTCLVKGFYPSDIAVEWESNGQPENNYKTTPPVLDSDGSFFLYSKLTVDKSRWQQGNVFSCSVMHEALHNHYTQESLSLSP
light: DIVMTQSPLSLPVTPGEPASISCQASESLVHSNRNTYLHWYLQKPGQSPQLLIYKVSNRFSGVPDRFSGSGSGTDFTLKISRVEAEDVGVYYCSQNTHVPPTFGQGTKVEIERTVAAPSVFIFPPSDEQLKSGTASVVCLLNNFYPREAKVQWKVDNALQSGNSQESVTEQDSKDSTYSLSSTLTLSKADYEKHKVYACEVTHQGLSSPVTKSFNRGEC
notes: as for B1
B11: GpH7-B3 variant K326_08L/GpL16-k0 (antibody, human IgG1, kappa)
heavy: not shown
light: DIVMTQSPLSLPVTPGEPASISCQASESLVHSNRNTYLHWYLQKPGQSPQLLIYKVSNRFSGVPDRFSGSGSGTDFTLKISRVEAEDVGVYYCSQNTHVPPTFGQGTKVEIERTVAAPSVFIFPPSDEQLKSGTASVVCLLNNFYPREAKVQWKVDNALQSGNSQESVTEQDSKDSTYSLSSTLTLSKADYEKHKVYACEVTHQGLSSPVTKSFNRGEC
notes: as for B1
B12: GpH7-B3 variant K334_04F/GpL16-k0 (antibody, human IgG1, kappa)
heavy: not shown
light: DIVMTQSPLSLPVTPGEPASISCQASESLVHSNRNTYLHWYLQKPGQSPQLLIYKVSNRFSGVPDRFSGSGSGTDFTLKISRVEAEDVGVYYCSQNTHVPPTFGQGTKVEIERTVAAPSVFIFPPSDEQLKSGTASVVCLLNNFYPREAKVQWKVDNALQSGNSQESVTEQDSKDSTYSLSSTLTLSKADYEKHKVYACEVTHQGLSSPVTKSFNRGEC
notes: as for B1
B13: GpH7-B3 variant K326_03V/GpL16-k0 (antibody, human IgG1, kappa)
heavy: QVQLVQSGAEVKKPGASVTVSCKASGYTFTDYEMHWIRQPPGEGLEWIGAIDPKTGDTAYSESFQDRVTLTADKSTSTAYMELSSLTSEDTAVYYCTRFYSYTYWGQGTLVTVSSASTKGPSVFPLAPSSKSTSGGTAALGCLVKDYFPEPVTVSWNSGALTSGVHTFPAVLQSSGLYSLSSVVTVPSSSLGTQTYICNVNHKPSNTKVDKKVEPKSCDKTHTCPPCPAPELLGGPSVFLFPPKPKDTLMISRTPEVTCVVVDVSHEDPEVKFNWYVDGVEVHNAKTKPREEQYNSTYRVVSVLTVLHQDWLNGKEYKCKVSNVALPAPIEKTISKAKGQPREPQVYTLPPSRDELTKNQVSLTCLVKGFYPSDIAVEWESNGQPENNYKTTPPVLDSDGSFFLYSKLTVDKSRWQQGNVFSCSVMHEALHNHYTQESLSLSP
light: DIVMTQSPLSLPVTPGEPASISCQASESLVHSNRNTYLHWYLQKPGQSPQLLIYKVSNRFSGVPDRFSGSGSGTDFTLKISRVEAEDVGVYYCSQNTHVPPTFGQGTKVEIERTVAAPSVFIFPPSDEQLKSGTASVVCLLNNFYPREAKVQWKVDNALQSGNSQESVTEQDSKDSTYSLSSTLTLSKADYEKHKVYACEVTHQGLSSPVTKSFNRGEC
notes: as for B1
B14: GpH7-B3 variant I336_14T/GpL16-k0 (antibody, human IgG1, kappa)
heavy: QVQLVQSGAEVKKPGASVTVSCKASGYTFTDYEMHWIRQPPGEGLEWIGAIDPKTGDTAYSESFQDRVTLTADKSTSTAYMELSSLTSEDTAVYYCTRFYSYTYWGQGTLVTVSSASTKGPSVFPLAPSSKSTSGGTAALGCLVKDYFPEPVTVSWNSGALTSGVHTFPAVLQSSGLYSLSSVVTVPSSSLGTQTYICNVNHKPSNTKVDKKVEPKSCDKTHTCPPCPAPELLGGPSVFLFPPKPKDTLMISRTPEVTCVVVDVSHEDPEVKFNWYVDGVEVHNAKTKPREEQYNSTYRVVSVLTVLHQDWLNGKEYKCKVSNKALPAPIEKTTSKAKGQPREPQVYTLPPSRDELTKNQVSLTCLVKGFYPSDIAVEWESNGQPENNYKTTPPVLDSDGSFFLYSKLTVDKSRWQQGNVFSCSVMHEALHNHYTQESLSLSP
light: DIVMTQSPLSLPVTPGEPASISCQASESLVHSNRNTYLHWYLQKPGQSPQLLIYKVSNRFSGVPDRFSGSGSGTDFTLKISRVEAEDVGVYYCSQNTHVPPTFGQGTKVEIERTVAAPSVFIFPPSDEQLKSGTASVVCLLNNFYPREAKVQWKVDNALQSGNSQESVTEQDSKDSTYSLSSTLTLSKADYEKHKVYACEVTHQGLSSPVTKSFNRGEC
notes: as for B1
B15: GpH7-B3 variant K326_04F/GpL16-k0 (antibody, human IgG1, kappa)
heavy: not shown
light: DIVMTQSPLSLPVTPGEPASISCQASESLVHSNRNTYLHWYLQKPGQSPQLLIYKVSNRFSGVPDRFSGSGSGTDFTLKISRVEAEDVGVYYCSQNTHVPPTFGQGTKVEIERTVAAPSVFIFPPSDEQLKSGTASVVCLLNNFYPREAKVQWKVDNALQSGNSQESVTEQDSKDSTYSLSSTLTLSKADYEKHKVYACEVTHQGLSSPVTKSFNRGEC
notes: as for B1
B16: GpH7-B3 variant I336_10E/GpL16-k0 (antibody, human IgG1, kappa)
heavy: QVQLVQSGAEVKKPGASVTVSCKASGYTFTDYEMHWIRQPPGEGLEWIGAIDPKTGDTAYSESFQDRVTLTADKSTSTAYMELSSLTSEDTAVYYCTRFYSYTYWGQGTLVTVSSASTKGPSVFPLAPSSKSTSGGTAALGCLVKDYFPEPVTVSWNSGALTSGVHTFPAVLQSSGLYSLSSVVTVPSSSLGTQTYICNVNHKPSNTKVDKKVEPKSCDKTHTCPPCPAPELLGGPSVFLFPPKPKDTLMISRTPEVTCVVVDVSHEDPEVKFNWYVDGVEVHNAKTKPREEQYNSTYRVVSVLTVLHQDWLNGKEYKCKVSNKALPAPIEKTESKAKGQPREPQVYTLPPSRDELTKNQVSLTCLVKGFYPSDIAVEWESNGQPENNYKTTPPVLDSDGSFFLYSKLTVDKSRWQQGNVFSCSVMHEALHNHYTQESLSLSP
light: DIVMTQSPLSLPVTPGEPASISCQASESLVHSNRNTYLHWYLQKPGQSPQLLIYKVSNRFSGVPDRFSGSGSGTDFTLKISRVEAEDVGVYYCSQNTHVPPTFGQGTKVEIERTVAAPSVFIFPPSDEQLKSGTASVVCLLNNFYPREAKVQWKVDNALQSGNSQESVTEQDSKDSTYSLSSTLTLSKADYEKHKVYACEVTHQGLSSPVTKSFNRGEC
notes: as for B1
B17: GpH7-B3 variant K334_02A/GpL16-k0 (antibody, human IgG1, kappa)
heavy: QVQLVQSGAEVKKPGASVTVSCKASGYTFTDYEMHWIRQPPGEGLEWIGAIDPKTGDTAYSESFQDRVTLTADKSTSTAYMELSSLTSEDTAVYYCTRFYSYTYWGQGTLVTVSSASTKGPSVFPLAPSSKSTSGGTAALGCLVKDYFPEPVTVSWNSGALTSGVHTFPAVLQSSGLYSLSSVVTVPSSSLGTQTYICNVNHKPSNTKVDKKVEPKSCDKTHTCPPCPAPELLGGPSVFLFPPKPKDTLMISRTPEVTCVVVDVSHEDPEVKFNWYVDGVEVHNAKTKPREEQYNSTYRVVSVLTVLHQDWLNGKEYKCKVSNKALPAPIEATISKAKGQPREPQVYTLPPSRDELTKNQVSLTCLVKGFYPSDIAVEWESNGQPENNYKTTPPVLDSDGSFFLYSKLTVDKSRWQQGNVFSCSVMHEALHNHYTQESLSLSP
light: DIVMTQSPLSLPVTPGEPASISCQASESLVHSNRNTYLHWYLQKPGQSPQLLIYKVSNRFSGVPDRFSGSGSGTDFTLKISRVEAEDVGVYYCSQNTHVPPTFGQGTKVEIERTVAAPSVFIFPPSDEQLKSGTASVVCLLNNFYPREAKVQWKVDNALQSGNSQESVTEQDSKDSTYSLSSTLTLSKADYEKHKVYACEVTHQGLSSPVTKSFNRGEC
notes: as for B1
B18: GpH7-B3 variant K326_10E/GpL16-k0 (antibody, human IgG1, kappa)
heavy: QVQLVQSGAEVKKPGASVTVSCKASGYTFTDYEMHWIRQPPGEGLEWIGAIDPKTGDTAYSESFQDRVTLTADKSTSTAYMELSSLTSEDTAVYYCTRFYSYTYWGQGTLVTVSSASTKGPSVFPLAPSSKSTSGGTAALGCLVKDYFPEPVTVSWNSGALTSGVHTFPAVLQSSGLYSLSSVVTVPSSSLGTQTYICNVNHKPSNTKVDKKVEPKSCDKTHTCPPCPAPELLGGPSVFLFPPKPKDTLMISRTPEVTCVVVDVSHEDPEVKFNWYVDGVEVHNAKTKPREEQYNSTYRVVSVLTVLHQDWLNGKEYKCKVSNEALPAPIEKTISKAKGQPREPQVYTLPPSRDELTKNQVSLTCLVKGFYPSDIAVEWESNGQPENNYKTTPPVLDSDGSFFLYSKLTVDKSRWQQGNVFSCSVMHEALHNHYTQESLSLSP
light: DIVMTQSPLSLPVTPGEPASISCQASESLVHSNRNTYLHWYLQKPGQSPQLLIYKVSNRFSGVPDRFSGSGSGTDFTLKISRVEAEDVGVYYCSQNTHVPPTFGQGTKVEIERTVAAPSVFIFPPSDEQLKSGTASVVCLLNNFYPREAKVQWKVDNALQSGNSQESVTEQDSKDSTYSLSSTLTLSKADYEKHKVYACEVTHQGLSSPVTKSFNRGEC
notes: as for B1
B19: GpH7-B3 variant K326_09D/GpL16-k0 (antibody, human IgG1, kappa)
heavy: not shown
light: DIVMTQSPLSLPVTPGEPASISCQASESLVHSNRNTYLHWYLQKPGQSPQLLIYKVSNRFSGVPDRFSGSGSGTDFTLKISRVEAEDVGVYYCSQNTHVPPTFGQGTKVEIERTVAAPSVFIFPPSDEQLKSGTASVVCLLNNFYPREAKVQWKVDNALQSGNSQESVTEQDSKDSTYSLSSTLTLSKADYEKHKVYACEVTHQGLSSPVTKSFNRGEC
notes: as for B1
B20: GpH7-B3 variant K326_07I/GpL16-k0 (antibody, human IgG1, kappa)
heavy: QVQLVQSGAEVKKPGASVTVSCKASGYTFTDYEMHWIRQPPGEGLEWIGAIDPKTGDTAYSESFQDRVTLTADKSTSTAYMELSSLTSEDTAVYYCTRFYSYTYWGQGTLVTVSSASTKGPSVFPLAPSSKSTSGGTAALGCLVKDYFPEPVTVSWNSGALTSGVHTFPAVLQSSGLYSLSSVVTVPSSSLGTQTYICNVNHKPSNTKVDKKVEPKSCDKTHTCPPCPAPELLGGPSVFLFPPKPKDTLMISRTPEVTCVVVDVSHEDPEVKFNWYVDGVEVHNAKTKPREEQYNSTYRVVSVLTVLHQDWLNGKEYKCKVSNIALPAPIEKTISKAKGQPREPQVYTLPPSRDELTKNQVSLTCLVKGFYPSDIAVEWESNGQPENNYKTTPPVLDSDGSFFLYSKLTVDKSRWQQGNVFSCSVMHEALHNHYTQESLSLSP
light: DIVMTQSPLSLPVTPGEPASISCQASESLVHSNRNTYLHWYLQKPGQSPQLLIYKVSNRFSGVPDRFSGSGSGTDFTLKISRVEAEDVGVYYCSQNTHVPPTFGQGTKVEIERTVAAPSVFIFPPSDEQLKSGTASVVCLLNNFYPREAKVQWKVDNALQSGNSQESVTEQDSKDSTYSLSSTLTLSKADYEKHKVYACEVTHQGLSSPVTKSFNRGEC
notes: as for B1
B21: GpH7-B3 variant I336_02A/GpL16-k0 (antibody, human IgG1, kappa)
heavy: not shown
light: DIVMTQSPLSLPVTPGEPASISCQASESLVHSNRNTYLHWYLQKPGQSPQLLIYKVSNRFSGVPDRFSGSGSGTDFTLKISRVEAEDVGVYYCSQNTHVPPTFGQGTKVEIERTVAAPSVFIFPPSDEQLKSGTASVVCLLNNFYPREAKVQWKVDNALQSGNSQESVTEQDSKDSTYSLSSTLTLSKADYEKHKVYACEVTHQGLSSPVTKSFNRGEC
notes: as for B1
B22: GpH7-B3 variant K326_19Q/GpL16-k0 (antibody, human IgG1, kappa)
heavy: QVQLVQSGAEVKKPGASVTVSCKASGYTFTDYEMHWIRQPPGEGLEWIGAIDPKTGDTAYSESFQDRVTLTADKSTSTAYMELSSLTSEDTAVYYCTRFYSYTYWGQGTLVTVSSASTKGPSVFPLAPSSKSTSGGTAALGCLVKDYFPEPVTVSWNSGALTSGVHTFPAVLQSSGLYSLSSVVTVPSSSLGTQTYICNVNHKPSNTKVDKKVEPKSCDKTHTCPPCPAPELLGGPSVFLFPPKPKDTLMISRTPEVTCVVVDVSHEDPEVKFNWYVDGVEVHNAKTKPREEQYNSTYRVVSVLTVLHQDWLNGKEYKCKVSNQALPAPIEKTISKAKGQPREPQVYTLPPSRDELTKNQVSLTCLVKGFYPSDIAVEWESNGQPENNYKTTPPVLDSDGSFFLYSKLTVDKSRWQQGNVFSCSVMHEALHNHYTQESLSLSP
light: DIVMTQSPLSLPVTPGEPASISCQASESLVHSNRNTYLHWYLQKPGQSPQLLIYKVSNRFSGVPDRFSGSGSGTDFTLKISRVEAEDVGVYYCSQNTHVPPTFGQGTKVEIERTVAAPSVFIFPPSDEQLKSGTASVVCLLNNFYPREAKVQWKVDNALQSGNSQESVTEQDSKDSTYSLSSTLTLSKADYEKHKVYACEVTHQGLSSPVTKSFNRGEC
notes: as for B1

The test deals with T1, FcγRIIIa extracellular domain with C-terminal His tag (human, UniProt P08637 17-208).
T1 construct: extracellular domain; also called FcgRIIIa; 3a
T1 sequence (P08637 17-208): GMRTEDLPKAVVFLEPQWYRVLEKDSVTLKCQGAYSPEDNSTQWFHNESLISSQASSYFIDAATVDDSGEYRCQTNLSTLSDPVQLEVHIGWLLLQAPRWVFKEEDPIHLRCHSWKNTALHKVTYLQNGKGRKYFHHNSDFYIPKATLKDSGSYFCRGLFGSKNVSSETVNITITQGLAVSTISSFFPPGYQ
The test can be described thus: SPR, relative to GpH7-B3/GpL16-k0. In general terms: Surface plasmon resonance follows binding to a sensor surface in real time, without labels.
Regarding B1, the Ho/Con_3a was 118 % of control (=100). As for B2, the figure is 119 % of control (=100). The figure for B3 is 101 % of control (=100); for B4 it is 111 % of control (=100).

Consider B5, for which the Ho/Con_3a is 115 % of control (=100).

As to B6, the Ho/Con_3a is 129 % of control (=100). Consider B7, for which the Ho/Con_3a is 110 % of control (=100). Regarding B8, the Ho/Con_3a is 170 % of control (=100). Consider B9, for which the Ho/Con_3a is 147 % of control (=100). As to B10, the Ho/Con_3a was 107 % of control (=100). With B11, the Ho/Con_3a was 114 % of control (=100). For B12, the Ho/Con_3a was 168 % of control (=100). Consider B13, for which the Ho/Con_3a is 137 % of control (=100).

B14: the Ho/Con_3a is 123 % of control (=100). In the case of B15, the Ho/Con_3a is 103 % of control (=100). Regarding B16, the Ho/Con_3a was 130 % of control (=100). Regarding B17, the Ho/Con_3a is 154 % of control (=100). For the molecule B18, the Ho/Con_3a is 157 % of control (=100). B19: the Ho/Con_3a is 163 % of control (=100). As for B20, the Ho/Con_3a was 134 % of control (=100). On to B21, for which the Ho/Con_3a is 104 % of control (=100). Consider B22, for which the Ho/Con_3a was 118 % of control (=100).

These data come from patent US20180155451A1 (published 2018).
